Results as given in the supplement of paper PMC10567573.

B1: NR2F2 (parent)
chain: NIPFFPDLQITDQVALLRLTWSEL

Variants of: B1
Assay: protein stability index of a GFP-peptide fusion (GPS, HEK-293T) (PSI 1-6); higher = more stable
Conditions: c terminus: a fixed tail appended
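Note: lentivirally expressed fusions sorted by FACS into six bins by GFP to DsRed ratio, PSI derived from sequencing read proportions per bin multiplied by bin number.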

Protein stability index, by site and new letter:
I10: D 1.68 | M 2.49 | H 2.34 | P 2.2 | W 2.39 | K 2.58 | V 2.68 | A 1.75 | Y 3.02 | Q 2.31 | T 1.72 | R 1.49 | S 2.09 | L 2.47 | N 2.05 | E 1.68 | C 2.15 | F 2.95 | G 1.4
L16: D 2.02 | R 1.84 | E 1.63 | K 1.61 | M 3.26 | G 2.02 | S 2.1 | P 1.86 | N 2.03 | C 2.65 | I 2.59 | A 2.41 | W 1.65 | T 3.48 | F 2.62 | H 1.67 | Q 2.33 | V 2.34
F5: W 1.68 | N 1.73 | H 1.79 | G 1.7 | I 2.26 | T 1.49 | P 1.49 | C 3.66 | L 1.56 | Y 2.26 | S 2.16 | K 2.17 | Q 2.13 | A 1.98 | E 1.67 | D 2 | V 2.41 | M 1.78 | R 2.34
A15: I 3.62 | C 2.07 | G 1.19 | S 2 | V 2.22 | H 1.57 | F 3.86 | W 2.03 | D 1.92 | L 2.58 | E 1.55 | T 2.41 | P 1.69 | N 2.38 | K 1.99 | Y 1.67 | Q 1.9 | M 2.71 | R 2.08
L8: P 2.25 | E 2.11 | M 2.51 | A 2.32 | F 3.11 | R 1.99 | W 2.64 | D 1.98 | C 1.92 | G 1.47 | I 2.92 | Q 2.22 | N 1.86 | S 1.82 | K 2.7 | T 2.73 | V 2.09 | Y 2.05 | H 2
R18: V 2.27 | A 2.33 | M 2.28 | I 3.87 | L 2.89 | S 2.13 | W 3.72 | H 1.39 | C 2.63 | F 2.89 | P 2.21 | D 1.54 | G 2.25 | K 2.52 | Q 2.18 | E 2.63 | N 2.45 | Y 2.75 | T 2.18
Q13: E 2.2 | D 1.85 | A 2.75 | C 3.12 | L 4.11 | W 2.93 | F 1.69 | M 4.27 | K 2.41 | I 4.15 | G 1.29 | S 2.33 | N 1.97 | R 1.92 | V 2.66 | T 3.06 | H 3.09 | P 2.57
D12: H 3.3 | E 3.52 | W 3.74 | V 4.16 | G 2.42 | M 2.37 | I 3.82 | P 4.7 | T 2.86 | N 2.42 | C 2.46 | R 1.66 | F 2.42 | K 3.13 | L 2.12 | A 3.01 | Y 4.16 | S 3.57
P3: N 2.28 | W 3.62 | E 2.12 | A 3.65 | I 2.13 | C 2.88 | H 1.82 | D 2.43 | G 2.86 | V 3.79 | Q 3.08 | K 3.61 | T 2.46 | L 1.92 | S 1.41
P6: V 3.65 | N 2.81 | H 2.31 | K 2 | Y 3.14 | R 1.51 | Q 2.32 | C 1.8 | D 2.23 | E 2.5 | I 3.02 | G 3.94 | M 2.25 | F 3.43 | A 2.97 | S 2.52 | T 2.77
T11: S 2.96 | W 3.19 | A 3.71 | N 1.67 | I 2.59 | Y 1.46 | G 2.28 | P 2.02 | D 1.61 | H 2.89 | M 3.1 | E 2.06 | L 4.1 | V 1.99 | K 2.55 | F 3.29 | Q 2.47 | C 2.25 | R 2.52
L17: F 1.46 | M 2.16 | Q 1.99 | T 3.49 | A 1.49 | Y 2.15 | E 2.26 | N 2.59 | P 2.37 | I 3.52 | S 1.79 | K 2.43 | H 1.54 | R 1.98 | W 1.92 | G 1.92 | V 3.46 | C 1.79 | D 2.08
V14: W 3.25 | L 2.72 | N 1.89 | Q 1.99 | E 1.9 | C 3.12 | G 1.45 | D 1.57 | F 2.04 | M 2.14 | A 1.7 | K 2.13 | Y 2.03 | I 2.81 | R 1.78 | H 1.81 | T 2.38 | P 1.87 | S 1.74
L19: Y 1.85 | Q 2.07 | M 1.76 | T 2.23 | S 2.15 | R 2.08 | C 2.44 | H 1.53 | G 2.35 | W 2.23 | K 2.12 | E 2.04 | I 2.3 | P 2.24 | N 2.4 | V 3.94 | A 1.99 | D 2.28 | F 2.73
D7: R 2.46 | H 2.53 | V 2 | P 2.46 | L 2.88 | M 3.45 | N 2.78 | S 3.27 | T 4.43 | F 2.25 | W 4.12 | G 3.35 | E 2.4 | A 1.65 | Y 2.79 | K 2.03 | Q 3.44 | C 2.67 | I 2.86
Q9: D 2.5 | H 2.84 | M 2.9 | Y 2.88 | W 2.96 | V 4.4 | P 1.93 | R 2.36 | C 2.34 | N 2.63 | S 2.83 | E 2.15 | A 2.86 | L 3.06 | T 2.26 | F 2.56 | K 1.89 | I 1.92 | G 4.13
I2: W 3.13 | T 2.01 | V 2.03 | Y 1.47
F4: Y 2.56 | A 2.34 | H 2.35 | V 2.42 | P 2.58 | G 2.2 | E 2.22 | C 2.63 | T 2.03 | I 2.63 | K 2.12 | D 2.44 | W 1.44 | Q 2.62 | M 2.26 | N 2.79 | L 3.09 | R 1.37 | S 2.04
T20: Q 2.08 | I 4.49 | E 1.96 | S 3.1 | L 2.23 | C 2.16 | R 2.21 | G 2.23 | H 2.49 | F 1.47 | D 1.81 | M 1.89 | A 1.83 | K 1.59 | P 2.02 | N 1.56
